Data published in PMC11384727.

Molecular target: PKM2 (pcDNA3.1(+)-PKM2, transfected) (human) (UniProt P14618)
Experiment: cross-linking

Chain of PKM2 (pcDNA3.1(+)-PKM2, transfected), P14618 1-531 (enzyme; other documents disagree on this pair) (P14618 whole entry): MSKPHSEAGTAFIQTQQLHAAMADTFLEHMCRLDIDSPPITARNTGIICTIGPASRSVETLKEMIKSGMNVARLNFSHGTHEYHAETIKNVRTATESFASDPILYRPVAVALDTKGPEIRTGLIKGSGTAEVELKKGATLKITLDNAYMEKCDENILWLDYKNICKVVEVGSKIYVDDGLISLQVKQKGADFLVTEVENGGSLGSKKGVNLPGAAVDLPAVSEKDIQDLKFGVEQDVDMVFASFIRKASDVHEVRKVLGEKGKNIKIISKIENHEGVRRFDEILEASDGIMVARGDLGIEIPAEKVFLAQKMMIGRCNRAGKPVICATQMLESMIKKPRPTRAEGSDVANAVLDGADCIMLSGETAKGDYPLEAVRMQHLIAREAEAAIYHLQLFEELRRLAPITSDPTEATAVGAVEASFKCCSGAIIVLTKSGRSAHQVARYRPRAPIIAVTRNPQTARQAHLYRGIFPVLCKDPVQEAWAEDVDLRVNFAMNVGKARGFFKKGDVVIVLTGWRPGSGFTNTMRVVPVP

stoichiometry N: 2
Substance: PKM2 (pcDNA3.1(+)-PKM2, transfected), P14618 1-531 (enzyme; other documents disagree on this pair)
